Measurements as given in patent US20110207628A1 (UNIVERSITY OF MIAMI, published 2011).

Key:
[1] = target: T1, FLAG-tubby-F (full-length mouse tubby with N-terminal FLAG tag) (mouse, UniProt P50586 1-505); assay: clonal phage on immobilized FLAG-tubby-F, plaque assay
T1 construct: mature; also called FLAG-tagged tubby; tubby-vesicles
T1 sequence: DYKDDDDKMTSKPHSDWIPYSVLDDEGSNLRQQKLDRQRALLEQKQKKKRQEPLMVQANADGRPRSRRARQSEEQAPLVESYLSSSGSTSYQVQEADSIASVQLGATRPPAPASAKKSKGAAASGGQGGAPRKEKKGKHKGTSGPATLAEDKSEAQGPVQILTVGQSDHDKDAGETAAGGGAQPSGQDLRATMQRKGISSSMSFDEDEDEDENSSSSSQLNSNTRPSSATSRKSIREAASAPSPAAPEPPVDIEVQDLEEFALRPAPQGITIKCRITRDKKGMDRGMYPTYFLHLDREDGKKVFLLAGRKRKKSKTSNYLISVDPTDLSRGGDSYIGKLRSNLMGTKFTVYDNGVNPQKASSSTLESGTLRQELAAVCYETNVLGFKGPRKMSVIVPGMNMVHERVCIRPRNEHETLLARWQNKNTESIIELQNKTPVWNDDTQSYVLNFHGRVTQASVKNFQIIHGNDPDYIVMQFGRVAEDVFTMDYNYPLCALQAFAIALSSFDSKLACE

[2] = target: T2, tubby-N (N-terminus of mouse tubby, 1M-242P), GST-free (mouse, UniProt P50586 1-242); assay: clonal phage on immobilized tubby-N, plaque assay
T2 construct: range 1-242; Expressed as GST-tubby-N in E. coli BL21(DE3), GST removed by 3C protease cleavage; also called GST-free tubby-N
T2 sequence (looked up): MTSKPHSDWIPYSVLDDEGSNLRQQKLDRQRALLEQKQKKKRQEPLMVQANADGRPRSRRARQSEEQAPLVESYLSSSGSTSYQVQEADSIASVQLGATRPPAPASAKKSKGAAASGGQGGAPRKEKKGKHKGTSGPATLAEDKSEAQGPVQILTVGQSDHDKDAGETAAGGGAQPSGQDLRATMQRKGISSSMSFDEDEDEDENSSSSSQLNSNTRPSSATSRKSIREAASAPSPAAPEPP

[3] = target: T3, Axl-Fc (Axl extracellular domain fused to human IgG1 Fc fragment) (human); assay: clonal phage on immobilized Axl-Fc, plaque assay
T3 construct: extracellular domain; Bought (R&D Systems)

[4] = target: T1, FLAG-tubby-F (full-length mouse tubby …); assay: GST pull-down: GST-tubby with lysate of cells expressing the FLAG-tagged protein, glutathione resin, Western blot with anti-FLAG mAb
[5] = target: T4, FLAG-tagged Tulp2 (full-length mouse Tulp2 with N-terminal FLAG tag) (mouse, UniProt P46686 1-562); assay: as above
T4 construct: mature; Expressed from pcDNA3 in Neuro-2a cells; used as cell lysate or on membrane vesicles
T4 sequence: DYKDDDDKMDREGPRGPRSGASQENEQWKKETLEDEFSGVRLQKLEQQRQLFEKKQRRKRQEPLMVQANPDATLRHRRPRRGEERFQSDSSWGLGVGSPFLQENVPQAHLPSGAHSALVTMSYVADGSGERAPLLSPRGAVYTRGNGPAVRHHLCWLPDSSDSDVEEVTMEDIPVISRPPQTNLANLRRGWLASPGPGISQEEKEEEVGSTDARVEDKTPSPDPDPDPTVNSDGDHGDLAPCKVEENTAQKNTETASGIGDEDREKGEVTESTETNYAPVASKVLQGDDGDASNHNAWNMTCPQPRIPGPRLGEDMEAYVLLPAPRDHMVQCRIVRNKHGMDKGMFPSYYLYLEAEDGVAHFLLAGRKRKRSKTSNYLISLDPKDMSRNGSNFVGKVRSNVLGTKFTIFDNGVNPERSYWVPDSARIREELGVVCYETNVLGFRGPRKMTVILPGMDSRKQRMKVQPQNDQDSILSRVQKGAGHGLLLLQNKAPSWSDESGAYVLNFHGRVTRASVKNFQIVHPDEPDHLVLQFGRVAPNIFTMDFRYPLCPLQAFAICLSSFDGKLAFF

T3 sequence (P30530 whole entry, the tested form may be a part): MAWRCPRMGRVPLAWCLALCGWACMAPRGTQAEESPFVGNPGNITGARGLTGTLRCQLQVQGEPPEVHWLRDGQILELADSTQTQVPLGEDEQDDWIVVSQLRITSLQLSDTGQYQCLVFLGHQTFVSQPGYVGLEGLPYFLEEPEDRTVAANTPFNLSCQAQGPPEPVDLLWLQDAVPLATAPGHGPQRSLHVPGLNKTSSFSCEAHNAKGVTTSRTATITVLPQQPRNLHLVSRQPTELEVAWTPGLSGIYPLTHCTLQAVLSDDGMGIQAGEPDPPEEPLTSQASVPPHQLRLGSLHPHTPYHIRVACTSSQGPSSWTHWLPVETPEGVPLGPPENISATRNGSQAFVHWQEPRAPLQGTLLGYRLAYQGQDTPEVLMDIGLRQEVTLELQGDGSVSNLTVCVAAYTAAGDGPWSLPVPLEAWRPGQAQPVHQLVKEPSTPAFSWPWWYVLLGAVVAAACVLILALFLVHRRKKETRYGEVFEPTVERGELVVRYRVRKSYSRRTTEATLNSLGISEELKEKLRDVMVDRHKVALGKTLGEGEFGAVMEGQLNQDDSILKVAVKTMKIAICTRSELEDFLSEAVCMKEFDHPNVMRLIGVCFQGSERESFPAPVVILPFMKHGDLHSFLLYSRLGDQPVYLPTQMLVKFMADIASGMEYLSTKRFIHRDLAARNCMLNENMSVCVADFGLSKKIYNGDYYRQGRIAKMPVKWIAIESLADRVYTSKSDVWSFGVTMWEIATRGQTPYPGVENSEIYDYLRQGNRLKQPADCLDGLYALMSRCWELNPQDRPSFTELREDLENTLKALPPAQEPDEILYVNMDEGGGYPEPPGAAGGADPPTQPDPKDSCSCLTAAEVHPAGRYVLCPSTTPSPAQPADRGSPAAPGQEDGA

B1: PC4 and SFRS1 interacting protein 1 (Psip1) 152K-219K, phage clone (other, mouse, UniProt Q99JF8 152-219, looked up)
chain: KAEKQVDTEEAGMVTAATASNVKASPKRGRPAATEVKIPKPRGRPKVVKQPCPSDGDMVIDEDKSKKK
notes: range 152-219; Minimal overlap of 4 independent clones; For Y2H recloned into pGAD424
[1]
  Binding to tubby-F (binding specificity to FLAG-tubby-F vs. to GFP-FLAG): ~24 X (fold)
[2]
  Binding to tubby-N (binding specificity of clonal phage vs. control phage): ~196 X (fold)

B2: PH207: Microfibrillar-associated protein IA or IB (Mfap1) 160K-290E, phage clone (other)
chain: KNEEMEVMEVEDEGRSGEESESESEYEEYTDSEDEMEPRLKPVFIRKKDRVTVQEREAEALKQKELEQEAKRMAEERRKYTLKIVEEETKKELEENKRSLAALDALNTDDENDEEEYEAWKVRELKRIKRE
notes: Frequency 4; not shown: T7 capsid 10B fusion partner, linker/3C cleavage site and C-terminal biotinylation tag of the phage display construct
[3]
  Binding activity (pfu ratio of clonal phage binding to immobilized Axl-Fc versus blank): ~36700 X (fold)

B3: GST-tubby-F (GST fused to full-length mouse tubby) (other, UniProt P50586 1-505, looked up)
chain: MTSKPHSDWIPYSVLDDEGSNLRQQKLDRQRALLEQKQKKKRQEPLMVQANADGRPRSRRARQSEEQAPLVESYLSSSGSTSYQVQEADSIASVQLGATRPPAPASAKKSKGAAASGGQGGAPRKEKKGKHKGTSGPATLAEDKSEAQGPVQILTVGQSDHDKDAGETAAGGGAQPSGQDLRATMQRKGISSSMSFDEDEDEDENSSSSSQLNSNTRPSSATSRKSIREAASAPSPAAPEPPVDIEVQDLEEFALRPAPQGITIKCRITRDKKGMDRGMYPTYFLHLDREDGKKVFLLAGRKRKKSKTSNYLISVDPTDLSRGGDSYIGKLRSNLMGTKFTVYDNGVNPQKASSSTLESGTLRQELAAVCYETNVLGFKGPRKMSVIVPGMNMVHERVCIRPRNEHETLLARWQNKNTESIIELQNKTPVWNDDTQSYVLNFHGRVTQASVKNFQIIHGNDPDYIVMQFGRVAEDVFTMDYNYPLCALQAFAIALSSFDSKLACE
notes: mature; Expressed in E. coli BL21(DE3) from pGEX-2T; not shown: glutathione S-transferase of pGEX-2T (Schistosoma japonicum)
[4]
  binding result: no binding
[5]
  binding result: no binding

B4: Tubby like protein 1 (Tulp1) 125D-243E, phage clone (other, mouse, UniProt Q9Z273 125-243, looked up)
chain: DDDEEEEEKKEGKKEKSSLPPKKAPKEREKKAKALGPRGDVGSPDAPRKPLRTKKKEVGEGTKLRKAKKKGPGETDKDPAGSPAALRKEFPAAMFLVGEGGAAEKGVKKKGPPKGSEEE
notes: range 125-243; For Y2H recloned into pGAD424
[1]
  Binding to tubby-F (binding specificity to FLAG-tubby-F vs. to GFP-FLAG): ~29.1 X (fold)
[2]
  Binding to tubby-N (binding specificity of clonal phage vs. control phage): ~49 X (fold)

B5: Zinc finger E-box binding homeobox 1 (Zeb1) 903E-1021E, phage clone (other, mouse, UniProt Q64318 903-1021, looked up)
chain: EHTGKRPHECGICRKAFKHKHHLIEHMRLHSGEKPYQCDKCGKRFSHSGSYSQHMNHRYSYCKRGAEDRDAMEQEDAGPEVLPEVLATEHVGARASPSQADSDERESLTREEDEDSEKE
notes: range 903-1021; Residues are the minimal overlap of 2 independent clones; For Y2H the insert was recloned into pGAD424
[1]
  Binding to tubby-F (binding specificity to FLAG-tubby-F vs. to GFP-FLAG): ~28.7 X (fold)
[2]
  Binding to tubby-N (binding specificity of clonal phage vs. control phage): ~284 X (fold)

B6: Structure specific recognition protein 1 (Ssrp1) 486E-619G, phage clone (other, mouse, UniProt Q08943 486-619, looked up)
chain: EEEEDVAEEFDSNASASSSSNEGDSDREEKKREQLKRAKMAKDRKSRRKSSEAKKGKDPNAPKRPMSAYMLWLNASREKIKSDHPGISITDLSKKAGEIWKGMSKEKKEEWDRKAEDARREYEKAMKEYEGGRG
notes: range 486-619; Minimal overlap of 2 independent clones; For Y2H recloned into pGAD424
[1]
  Binding to tubby-F (binding specificity to FLAG-tubby-F vs. to GFP-FLAG): ~4.5 X (fold)
[2]
  Binding to tubby-N (binding specificity of clonal phage vs. control phage): ~157 X (fold)

B7: ATP-binding cassette F1 (Abcf1) 57K-196G, phage clone (other, mouse, UniProt Q6P542 57-196, looked up)
chain: KLQKEKEQQQQQQQQKKKRDTRKGRRKKDVDDDSDERVLMERLKQLSVPASDEEDEVPAPIPRGRKKAKGGNVFEALIQDDSEEEEEEEENRVLKPAKPEKNRINKAVAEEPPGLRSKKGKEEKSKGKAKSKPAAADSEG
notes: Minimal overlap of 2 independent clones; For Y2H recloned into pGAD424
[1]
  Binding to tubby-F (binding specificity to FLAG-tubby-F vs. to GFP-FLAG): ~27.2 X (fold)
[2]
  Binding to tubby-N (binding specificity of clonal phage vs. control phage): ~68.2 X (fold)

B8: Microtubule-associated protein 7 (Mtap7) 23A-114R, phage clone (other, mouse, UniProt O88735 23-114, looked up)
chain: ASDGYKVQEKRTAPSRPTSTVSGQTSNHSGNKPDPPPVLRVDDRQRLARERREEREKQLAARETVWLEREERARQHYERHLEARKKKLEDQR
notes: range 23-114; For Y2H recloned into pGAD424
[1]
  Binding to tubby-F (binding specificity to FLAG-tubby-F vs. to GFP-FLAG): ~3.8 X (fold)
[2]
  Binding to tubby-N (binding specificity of clonal phage vs. control phage): ~3.5 X (fold)

B9: High mobility group box 2 (Hmgb2) 89K-188E, phage clone (other, mouse, UniProt P30681 89-188, looked up)
chain: KKDPNAPKRPPSAFFLFCSENRPKIKIEHPGLSIGDTAKKLGEMWSEQSAKDKQPYEQKAAKLKEKYEKDIAAYRAKGKSEAGKKGPGRPTGSKKKNEPE
notes: range 89-188; Minimal overlap of 5 independent clones; For Y2H recloned into pGAD424
[1]
  Binding to tubby-F (binding specificity to FLAG-tubby-F vs. to GFP-FLAG): ~21.7 X (fold)
[2]
  Binding to tubby-N (binding specificity of clonal phage vs. control phage): ~312 X (fold)

B10: Zinc finger protein 609 (Zfp609) 1M-183E, phage clone (other, mouse, UniProt Q8BZ47 1-183, looked up)
chain: MSLSSGACGGKGVDANPVETYDSGDEWDIGVGNLIIDLDADLEKDQQKLEMSGSKEVGIPAPNAVATLPDNIKFVTPVPGPQGKEGKSKSKRSKSGKDASKPTPGTSLFSPSEGAASKKEVQGRAGDGASAGGLVAAVAPKGSEKAAKASRSVAGSKKEKENSSSKGKKERSEGVGTCSEKDP
notes: range 1-183; Minimal overlap of 2 independent clones; For Y2H recloned into pGAD424
[1]
  Binding to tubby-F (binding specificity to FLAG-tubby-F vs. to GFP-FLAG): ~2.3 X (fold)
[2]
  Binding to tubby-N (binding specificity of clonal phage vs. control phage): ~53.2 X (fold)

B11: PH181: SPRY domain containing 3 (Spryd3) 31I-215S, phage clone (other, mouse)
chain: IREIREVRAFRYQERFKHILVDGDTLSYHGNSGEVGCYVASRPLTKDSNYFEVSIVDSGVRGTIAVGLVPQYYSLDHQPGWLPDSVAYHADDGKLYNGRAKGRQFGSKCNSGDRIGCGIEPVSFDVQTAQIFFTKNGKRVGSTIMPMSPDGLFPAVGMHSLGEEVRLHLNAELGREDDSVMMVDS
notes: range 31-215; Frequency 8
[3]
  Binding activity (pfu ratio of clonal phage binding to immobilized Axl-Fc versus blank): ~1e+06 X (fold)

B12: PH194: Growth arrest specific 6 (Gas6) 43Q-148R, phage clone (ligand, mouse, UniProt Q61592 43-148, looked up)
chain: QRRAYQVFEEAKQGHLERECVEEVCSKEEAREVFENDPETEYFYPRYQECMRKYGRPEEKNPDFAKCVQNLPDQCTPNPCDKKGTHICQDLMGNFFCVCTDGWGGR
notes: range 43-148
[3]
  Binding activity (pfu ratio of clonal phage binding to immobilized Axl-Fc versus blank): ~40 X (fold)

B13: IQ motif containing GTPase activating protein 2 (Iqgap2) 1232E-1368E, phage clone (other, mouse, UniProt Q3UQ44 1232-1368, looked up)
chain: EKSDLLNELLESLGEVPTVESFLGEGAVDPNDPNKENTLNQLSKTEISLSLTSKYDVKDGEAVDGRSLMIKTKKLIIDVTRNQPGSTLTEILETPATGQQELEHAKDMESRAVVDSRTPEEGKQSQAVIEDARLPLE
notes: range 1232-1368
[1]
  Binding to tubby-F (binding specificity to FLAG-tubby-F vs. to GFP-FLAG): ~1.8 X (fold)
[2]
  Binding to tubby-N (binding specificity of clonal phage vs. control phage): ~53.2 X (fold)

B14: CCCTC-binding factor (Ctcf) 136G-400T, phage clone (other, mouse, UniProt Q61164 136-400, looked up)
chain: GAYENEVSKEGLAESEPMICHTLPLPEGFQVVKVGANGEVETLEQGELPPQEDSSWQKDPDYQPPAKKTKKTKKSKLRYTEEGKDVDVSVYDFEEEQQEGLLSEVNAEKVVGNMKPPKPTKIKKKGVKKTFQCELCSYTCPRRSNLDRHMKSHTDERPHKCHLCGRAFRTVTLLRNHLNTHTGTRPHKCPDCDMAFVTSGELVRHRRYKHTHEKPFKCSMCDYASVEVSKLKRHIRSHTGERPFQCSLCSYASRDTYKLKRHMRT
notes: range 136-400; For Y2H recloned into pGAD424
[1]
  Binding to tubby-F (binding specificity to FLAG-tubby-F vs. to GFP-FLAG): ~44.9 X (fold)
[2]
  Binding to tubby-N (binding specificity of clonal phage vs. control phage): ~117 X (fold)
